Reference: patent US20210292393A1 (published 2021)

What was measured:
[1] = target: SARS-CoV-2 spike (S) protein, full length, wild type, expressed on the surface of CHO cells (SARS-CoV-2, UniProt P0DTC2 14-1273)
[2] = target: SARS-CoV-2 full length spike protein, wild type, expressed on the surface of CHO cells (SARS-CoV-2, UniProt P0DTC2 14-1273)

Binder | median fluorescence fold over isotype [1] | median fluorescence fold over isotype control [2]
antibody 380 (antibody, V domains shown) VH: QVQLVESGGGVVQPGRSLRLSCAASGFTLKNYGMHWVRQAPGKGLEWVIVLSFDGSDEYKADSVRGRFTVSRDNSKNTLFLQMNSLRPDDTAVYYCAREQPTMIEGGRGPFDIWGQGTMVTVSS VL: EVVMTQSPATLSVSPGDRATLSCRASQGVNSNLAWYQQKPGQAPRLLIYAASTRATGIPARFSASGSGTHFTLTISSLQSEDFAVYYCLQYNNWPPWTFGQGTKLEIK | 1.06 fold over isotype | –
antibody 366 (antibody, V domains shown) VH: QVQLVESGGGVVQPGRSLRLSCAASGFTFSSYAMHWVRQAPGKGLEWVAVISYDGSNKYYADSVKGRFTISRDNSKNTLYLQMNSLRAEDTAVYYCARGLVGYNWFDPWGQGTLVTVSS VL: DIQMTQSPSSVSASVGDRVTITCRASQGISSWLAWYQQKPGKAPKLLIYAASSLQSGVPSRFSGSGSGTDFTLTISSLQPEDFATYYCQQANSFTFGPGTKVDIK | 8.97 fold over isotype | –
antibody 378 (antibody, V domains shown) VH: QVQLVQSGAEVKKPGASVKVSCKASGYTFTSYYMHWVRQAPGQGLEWMGIINPSGGSTSYAQKFQGRVTMTRDTSTSTVYMELSSLRSEDTAVYYCARDSGGMDDFWSGYYSPGGDYWGQGTLVTVSS VL: QSALTQPASVSGSPGQSITISCTGTSSDVGSYNLVSWYQQHPGKAPKLMIYEGSKRPSGVSNRFSGSKSGNTASLTISGLQAEDEADYYCCSYAGSSTWVFGGGTKLTVL | 25.3 fold over isotype | –
antibody 496 (antibody, V domains shown) VH: QVQLVQSGAEVKKPGASVKVSCKASGYTFTDYYIHWVRQAPGQGLEWMGWINPNSGGTNYAQKFQGRLTMTRDTSISTAYMELSRLRSDDTAVYYCARVYSMFREFIINPYYYYYGLDVWGQGTTVTVSS VL: QSALTQPASVSGSPRQSITISCTGTSSDVGSYNLVSWYQQHPGKAPKLMIYEGSKRPSGVSNRFSGSKSGNTASLAISGLQAEDEANYYCCSYAGSSTLVFGGGTKLTVL | – | 19.7 fold over isotype
antibody 372 (antibody, V domains shown) VH: QVQLVESGGGVVQPGRSLRLSCAASGFTFSSYAMHWVRQAPGKGLEWVAVISYDGSNKYYADSVKGRFTISRDNSKNTLYLQMNSLRAEDTAVYYCARDLGTSALLWFGELFLNYGMDVWGQGTTVTVSS VL: QSALTQPRSVSGSPGQSVTISCTGTSSDVGGYNYVSWYQQHPGKAPKLMIYDVSKRPSGVPDRFSGSKSGNTASLTISGLQAEDEADYYCCSYAGSPILVFGGGTKLTVL | 30.2 fold over isotype | –
antibody 497 (antibody, V domains shown) VH: QVQLQESGPGLVKPSQTLSLTCTVSGGSINSFGYYWSWIRQHPGKGLEWIGYIYYSGSTDYNPSLNSRVTISLDTSKNQFLLKLTSVTAADTAVYYCAKLTDYYDSSGYSFDYWGQGTLVTVSS VL: DIQMTQSPSSVSASVGDRVTITCRASQDISRWLAWYQQKPGKAPKLLIYAASSLQSGVPSRFSGRGSGTELTLTISSLQPEDFATYFCQQAYSFPFTFGGGTKVEIK | – | 28.3 fold over isotype
antibody 367 (antibody, V domains shown) VH: QVQLVQSGAEVKKPGASVKVSCKASGYTFTGYYIHWVRQAPGQGLEWMGWINPNSGGTIYAQKFQGRVTMTRDTSISTAYMELSRLTSDDTAVYSCAREPYYDILTGYYAPRRYFDYWGQGTLVTVSS VL: QSALTQPASVSGSPGQSITISCTGTSSDVGSYNYVSWYLQHPGKAPKLMIYDVSNRPSGVSNRFSGSKSGNTASLTISGLQAEDEADFYCSSYTSRSTYVFGTGTKVTVL | 26.5 fold over isotype | –
antibody 492 (antibody, V domains shown) VH: QVQLVESGGGVVQPGRSLRLSCAASGFTFSSYGMHWVRQAPGKGLEWVAVISYDGSNKYYADSVKGRFTISRDNSKNTLYLQMNSLRAEDTAVYYCAKDGILWWWWGYFDYWGQGTLVTVSS VL: QSVLTQPPSVSGAPGQRVTISCTGSSSNIGAGFDVHWYQQLPGTAPKLLIYGNSNRPSGVPDRFSGSKSGTSASLAITGLQAEDEADYYCQSYDSSLSVVFGGGTKLTVL | – | 9.25 fold over isotype
